From patent US20140044713A1 (KONINKLIJKE NEDERLANDSE AKADEMIE VAN WETENSCHAPPEN, published 2014) come the findings set out here.

One assay has as its target T1, tagged Frizzled5 (Frz5) (UniProt Q13467 27-585, limits assumed).
T1 construct: whole, on cells; also called double-tagged Frizzled5; Frz5 bait; not shown: FLAG/HA tag
Kind of assay: Rspo1-Fc pull-down (proteinG beads) from transfected HEK293T cells, FLAG western blot. For orientation: Immunoblotting shows a protein as a band on a membrane.

Another assay concerns the target T2, control Lgr7 (Homo sapiens (Human), UniProt Q9HBX9 1-757).
T2 construct: not shown: the sister constructs are FH-tagged
T2 sequence: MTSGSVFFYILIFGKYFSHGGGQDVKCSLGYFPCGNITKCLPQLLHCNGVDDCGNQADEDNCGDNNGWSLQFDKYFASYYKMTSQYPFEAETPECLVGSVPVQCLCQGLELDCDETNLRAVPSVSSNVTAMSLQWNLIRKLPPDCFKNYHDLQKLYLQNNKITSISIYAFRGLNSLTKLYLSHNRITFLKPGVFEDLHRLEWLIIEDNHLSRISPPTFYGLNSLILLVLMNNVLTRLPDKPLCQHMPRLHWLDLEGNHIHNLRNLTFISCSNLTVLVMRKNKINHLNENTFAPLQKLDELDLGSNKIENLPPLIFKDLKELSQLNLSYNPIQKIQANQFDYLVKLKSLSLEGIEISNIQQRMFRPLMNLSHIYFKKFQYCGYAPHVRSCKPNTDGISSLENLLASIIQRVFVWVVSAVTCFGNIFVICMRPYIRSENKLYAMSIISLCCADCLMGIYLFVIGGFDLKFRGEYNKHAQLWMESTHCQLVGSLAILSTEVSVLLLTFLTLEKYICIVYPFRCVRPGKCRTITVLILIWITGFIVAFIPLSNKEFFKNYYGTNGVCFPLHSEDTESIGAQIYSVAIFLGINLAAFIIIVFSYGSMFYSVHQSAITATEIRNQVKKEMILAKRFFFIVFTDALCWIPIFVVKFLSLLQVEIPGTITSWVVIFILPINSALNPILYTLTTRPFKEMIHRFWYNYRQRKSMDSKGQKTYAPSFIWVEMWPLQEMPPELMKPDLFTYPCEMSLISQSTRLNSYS
The experiment in a line: HEK293T cells transfected with the tagged Lgr, incubated with Rspo1-Fc, protein G immunoprecipitation, anti-FLAG Western blot. The source says: FIG. 7A: Rspondin1 binds to Lgr4, Lgr5 and Lgr6. […] Bottom: Input of tagged proteins.

Assay [1] addresses T3, Lgr5 ΔLRR1-17 (deletion of N-terminus and entire LRR region) (UniProt O75473 22-907).
T3 construct: whole, on cells; Deletion construct
T3 sequence (looked up): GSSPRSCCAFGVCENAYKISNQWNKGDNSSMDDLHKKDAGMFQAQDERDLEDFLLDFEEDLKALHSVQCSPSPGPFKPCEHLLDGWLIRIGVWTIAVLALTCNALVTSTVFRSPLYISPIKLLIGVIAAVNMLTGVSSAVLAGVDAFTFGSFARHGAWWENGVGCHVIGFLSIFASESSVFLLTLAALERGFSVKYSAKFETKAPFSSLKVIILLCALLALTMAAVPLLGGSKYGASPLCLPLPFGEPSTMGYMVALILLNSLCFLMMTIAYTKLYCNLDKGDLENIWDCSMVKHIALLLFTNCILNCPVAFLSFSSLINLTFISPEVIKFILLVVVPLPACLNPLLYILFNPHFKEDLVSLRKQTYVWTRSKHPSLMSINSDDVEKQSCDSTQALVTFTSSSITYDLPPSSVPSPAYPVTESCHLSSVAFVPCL
The experiment in a line: right panels: incubation with Rspo1 after cell lysis, FLAG immunoprecipitation, anti-hIgG-Fc Western blot.

The target of assay [2] is T4, Lgr5 ΔN (deletion of the extreme N-terminus of Lgr5, amino acids 28-50) (UniProt O75473 22-907).
T4 construct: whole, on cells; Deletion construct
T4 sequence (looked up): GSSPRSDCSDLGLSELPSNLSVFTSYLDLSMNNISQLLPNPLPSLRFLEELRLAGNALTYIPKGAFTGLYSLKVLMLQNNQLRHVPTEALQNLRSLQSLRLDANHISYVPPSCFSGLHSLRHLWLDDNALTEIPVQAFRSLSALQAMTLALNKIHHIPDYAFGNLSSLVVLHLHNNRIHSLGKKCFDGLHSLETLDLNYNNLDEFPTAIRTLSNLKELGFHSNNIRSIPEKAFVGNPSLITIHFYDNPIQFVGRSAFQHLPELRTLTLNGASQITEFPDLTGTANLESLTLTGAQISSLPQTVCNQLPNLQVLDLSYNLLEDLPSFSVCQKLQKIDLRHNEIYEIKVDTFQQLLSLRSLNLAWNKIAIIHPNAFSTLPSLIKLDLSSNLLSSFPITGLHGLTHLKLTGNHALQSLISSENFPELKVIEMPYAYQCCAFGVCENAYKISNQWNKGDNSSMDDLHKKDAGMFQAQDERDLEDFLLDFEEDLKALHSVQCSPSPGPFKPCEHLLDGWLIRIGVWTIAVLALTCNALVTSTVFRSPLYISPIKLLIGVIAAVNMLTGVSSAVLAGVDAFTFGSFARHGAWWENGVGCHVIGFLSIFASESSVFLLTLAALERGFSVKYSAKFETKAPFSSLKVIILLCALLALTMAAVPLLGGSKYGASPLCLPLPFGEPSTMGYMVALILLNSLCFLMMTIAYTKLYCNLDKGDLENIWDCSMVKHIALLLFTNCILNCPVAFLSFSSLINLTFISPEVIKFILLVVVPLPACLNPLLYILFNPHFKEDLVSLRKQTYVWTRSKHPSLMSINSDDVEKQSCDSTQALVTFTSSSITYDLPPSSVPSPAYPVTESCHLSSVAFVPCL
The assay is described as above.

Assay [3] concerns the target T5, LGR5-478 (exo domain of LGR5 without the CRL region) (UniProt O75473 22-478).
T5 construct: domain: exo domain of LGR5 without the CRL region; Purified protein
T5 sequence (looked up): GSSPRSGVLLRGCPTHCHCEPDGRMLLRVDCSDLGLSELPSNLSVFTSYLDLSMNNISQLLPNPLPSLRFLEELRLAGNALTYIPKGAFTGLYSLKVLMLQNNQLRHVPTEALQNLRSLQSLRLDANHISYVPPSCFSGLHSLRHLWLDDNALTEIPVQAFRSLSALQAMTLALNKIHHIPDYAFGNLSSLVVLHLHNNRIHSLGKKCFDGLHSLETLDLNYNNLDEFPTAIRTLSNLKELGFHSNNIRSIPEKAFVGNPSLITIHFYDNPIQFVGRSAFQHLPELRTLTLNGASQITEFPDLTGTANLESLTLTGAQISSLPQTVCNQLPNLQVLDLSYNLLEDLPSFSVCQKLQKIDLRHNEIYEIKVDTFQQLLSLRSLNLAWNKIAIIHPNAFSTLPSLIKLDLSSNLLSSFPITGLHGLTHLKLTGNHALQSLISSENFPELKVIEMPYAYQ
The experiment in a line: gel filtration of purified proteins.

T1 sequence (Q13467 27-585 limits assumed): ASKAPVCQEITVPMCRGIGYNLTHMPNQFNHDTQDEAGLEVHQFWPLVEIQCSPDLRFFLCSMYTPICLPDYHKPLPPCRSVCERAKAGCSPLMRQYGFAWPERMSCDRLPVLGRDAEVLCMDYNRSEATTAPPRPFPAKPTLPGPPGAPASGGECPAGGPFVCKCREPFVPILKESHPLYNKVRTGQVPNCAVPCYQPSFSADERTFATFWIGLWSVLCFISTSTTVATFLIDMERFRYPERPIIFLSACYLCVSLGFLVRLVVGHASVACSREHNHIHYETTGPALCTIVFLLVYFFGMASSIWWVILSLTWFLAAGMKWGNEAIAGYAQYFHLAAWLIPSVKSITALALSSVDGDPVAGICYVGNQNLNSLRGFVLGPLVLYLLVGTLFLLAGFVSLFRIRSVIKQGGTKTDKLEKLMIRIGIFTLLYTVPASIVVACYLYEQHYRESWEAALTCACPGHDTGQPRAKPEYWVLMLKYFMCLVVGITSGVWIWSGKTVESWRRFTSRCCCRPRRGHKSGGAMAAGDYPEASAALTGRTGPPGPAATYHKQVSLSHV

B1: Rspo1-Fc fusion protein (Fc fusion)
chain: SRGIKGKRQRRISAEGSQACAKGCELCSEVNGCLKCSPKLFILLERNDIRQVGVCLPSCPPGYFDARNPDMNKCIKCKIEHCEACFSHNFCTKCKEGLYLHKGRCYPACPEGSSAANGTMECSSPAQCEMSEWSPWGPCSKKQQLCGFRRGSEERTRRVLHAPVGDHAACSDTKETRRCTVRRVPCPEGQKRRKGGQGRRENANRNLARKESKEAGAGSRRRKGQQQQQQQGTVGPLTSAGPA
notes: also called Rspondin1 IgFc fusion protein; not shown: Fc (IgFc) part
B1: the binding result is “no binding (tested: ˜1 µg/ml)” with tagged Frizzled5 (Frz5), “no binding (tested: ~1 µg/ml)” with control Lgr7, “no binding” in assay [1] and “no binding” in assay [2].

B2: antibody 1D9 (antibody, V domains shown)
VH: EVKLQESGAALVKPGASVKLSCKASGYTFTDYYIHWVKQSHGKSLEWIGYINPNSGYTNYNEKFKSKATLTVDKSTNTAYMELSRLTSEDSATYYCTRFGSYWYFDFWGQGTTVTVSS
VL: MTQSPTSMSISIGDRVTMNCKASQNVDSNVDWYQQKTGQSPKLLIYKASNRYTGVPDRFTGSGSGTDFTFTISNMQAEDLAVYYCMQSNSYPLTFGSGTKLEIKR
notes: Rat monoclonal antibody against human Lgr5; hybridoma LMBP 6961CB; also called Ab1; 1D9 A5
As to B2, the binding result in assay [3] is “no binding”.
